Experimental data as given in US20210301018A1 (ITABMED HK, published 2021).

T1: human CD19 on cells (human B lymphocytes; Raji, Daudi and Reh tumor cells) (human, UniProt P15391 20-556)
T1 sequence (looked up): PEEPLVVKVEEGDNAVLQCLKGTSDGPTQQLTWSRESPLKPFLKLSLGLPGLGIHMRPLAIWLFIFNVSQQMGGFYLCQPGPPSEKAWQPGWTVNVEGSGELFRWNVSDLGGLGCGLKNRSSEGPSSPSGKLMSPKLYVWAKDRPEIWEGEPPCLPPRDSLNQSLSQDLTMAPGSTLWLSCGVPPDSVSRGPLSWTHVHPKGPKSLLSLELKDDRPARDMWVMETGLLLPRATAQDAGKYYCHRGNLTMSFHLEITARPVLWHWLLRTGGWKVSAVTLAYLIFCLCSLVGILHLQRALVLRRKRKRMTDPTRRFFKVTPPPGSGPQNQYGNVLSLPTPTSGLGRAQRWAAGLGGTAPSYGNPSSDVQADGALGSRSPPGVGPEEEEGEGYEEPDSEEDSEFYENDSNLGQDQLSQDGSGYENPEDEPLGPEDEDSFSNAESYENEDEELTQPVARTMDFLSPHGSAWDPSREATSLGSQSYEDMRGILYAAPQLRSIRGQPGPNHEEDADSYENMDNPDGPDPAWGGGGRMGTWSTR

T2: cynomolgus monkey CD19 on cynomolgus monkey B lymphocytes (cynoPBMC) (cynomolgus monkey, UniProt A0A2K5W8L9 20-557)
T2 sequence: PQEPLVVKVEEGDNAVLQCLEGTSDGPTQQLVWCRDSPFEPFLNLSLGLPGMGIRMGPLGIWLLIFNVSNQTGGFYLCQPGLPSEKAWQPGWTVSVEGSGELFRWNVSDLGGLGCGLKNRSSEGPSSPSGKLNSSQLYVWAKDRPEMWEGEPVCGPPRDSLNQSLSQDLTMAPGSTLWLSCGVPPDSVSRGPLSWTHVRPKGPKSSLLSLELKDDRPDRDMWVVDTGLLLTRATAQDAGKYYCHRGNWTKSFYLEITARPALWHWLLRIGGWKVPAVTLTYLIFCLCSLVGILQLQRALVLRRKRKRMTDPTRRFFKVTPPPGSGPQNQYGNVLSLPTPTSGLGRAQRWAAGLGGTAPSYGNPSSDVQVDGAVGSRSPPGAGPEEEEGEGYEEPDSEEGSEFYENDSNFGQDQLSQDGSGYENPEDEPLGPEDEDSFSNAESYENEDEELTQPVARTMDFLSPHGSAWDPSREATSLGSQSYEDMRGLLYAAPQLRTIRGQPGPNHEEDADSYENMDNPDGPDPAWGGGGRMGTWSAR

B1: CD19×CD3 bispecific antigen binding protein ITAB2006 (bispecific antibody)
chain: EVQLVESGGGLVQPGGSLRLSCAASGFTFNTYAMNWVRQAPGKGLEWVARIRSKYNNYATYYADSVKDRFTISRDDSKNTLYLQMNSLRAEDTAVYYCVRHGNFGNSYVSWFAYWGQGTMVTVSSGGGGSGGGGSGGGGSQAVVTQEPSLTVSPGGTVTLTCRSSTGAVTTSNYANWVQQKPGQAPRGLIGGTNKRAPGTPARFSGSLLGGKAALTLSGVQPEDEAEYYCALWYSNLWVFGGGTKLTVLGRAGGGGAGGGGQVQLVQSGPELIKPGGSVKMSCKASGYTFTSYVMHWVRQKPGQGLEWIGYINPYNDGTKYNEKFKGRATLTSDKSSSTAYMELSSLRSEDSAVYYCARGTYYYGSRVFDYWGQGTTVTVSSASTKGPSVFPLAPSSKSTSGGTAALGCLVKDYFPEPVTVSWNSGALTSGVHTFPAVLQSSGLYSLSSVVTVPSSSLGTQTYICNVNHKPSNTKVDKRVEPKSCPPCGGGGSHHHHHH
light: DVVMTQSPSSIPVTLGESVSISCRSSKSLQNVNGNTYLYWFQQRPGQSPQLLIYRMSNLNSGVPDRFSGSGSGTDFTLRISGVEPEDVGVYYCMQHLEYPITFGAGTKLEIKRTVAAPSVFIFPPSDEQLKSGTASVVCLLNNFYPREAKVQWKVDNALQSGNSQESVTEQDSKDSTYSLSSTLTLSKADYEKHKVYACEVTHQGLSSPVTKSFNRGECPPCS
B2: CD19×CD3 bispecific antigen binding protein ITAB2003 (bispecific antibody)
chain: EVQLVESGGGLVQPGGSLRLSCAASGFTFNTYAMNWVRQAPGKGLEWVARIRSKYNNYATYYADSVKDRFTISRDDSKNTLYLQMNSLRAEDTAVYYCVRHGNFGNSYVSWFAYWGQGTMVTVSSGGGGSGGGGSGGGGSQAVVTQEPSLTVSPGGTVTLTCRSSTGAVTTSNYANWVQQKPGQAPRGLIGGTNKRAPGTPARFSGSLLGGKAALTLSGVQPEDEAEYYCALWYSNLWVFGGGTKLTVLGRAGGGQVQLVQSGPELIKPGGSVKMSCKASGYTFTSYVMHWVRQKPGQGLEWIGYINPYNDGTKYNEKFKGRATLTSDKSSSTAYMELSSLRSEDSAVYYCARGTYYYGSRVFDYWGQGTTVTVSSASTKGPSVFPLAPSSKSTSGGTAALGCLVKDYFPEPVTVSWNSGALTSGVHTFPAVLQSSGLYSLSSVVTVPSSSLGTQTYICNVNHKPSNTKVDKKVEPKSCPPCGGGGSHHHHHH
light: DVVMTQSPSSIPVTLGESVSISCRSSKSLLNSNGNTYLYWFQQRPGQSPQLLIYRMSNLASGVPDRFSGSGSGTDFTLRISGVEPEDVGVYYCMQHLEYPLTFGAGTKLEIKRTVAAPSVFIFPPSDEQLKSGTASVVCLLNNFYPREAKVQWKVDNALQSGNSQESVTEQDSKDSTYSLSSTLTLSKADYEKHKVYACEVTHQGLSSPVTKSFNRGECPPC
B3: CD19×CD3 bispecific antigen binding protein ITAB2005 (bispecific antibody)
chain: B2 chain
light: B1 light

Legend:
Assay in all cases: cell-based or functional assay
[1] = biological target: T1, human CD19 on cells (human B …)
[2] = biological target: T2, cynomolgus monkey CD19 on cynomolgus …
[3] = biological target: T1, human CD19 on cells (human B …); remark: listed apart in the source
[4] = biological target: T2, cynomolgus monkey CD19 on cynomolgus …; remark: listed apart in the source

Row | Binder | cell killing activity relative to ITAB2003 (human PBMC against autologous B cells) [1] [fold] | cell killing activity relative to ITAB2003 (cynomolgus monkey PBMC against autologous B cells) [2] [fold] | EC50 of CD19×CD3 BSAP mediated PBMC cytotoxicity against autologous B cells (human PBMC) [3] [ng/mL] | EC50 of CD19×CD3 BSAP mediated PBMC cytotoxicity against autologous B cells (cynomolgus monkey PBMC) [4] [ng/mL] | EC50 of CD19×CD3 BSAP mediated human PBMC cytotoxicity against Raji tumor cells [1] [ng/mL]
1 | B1 | ≥ 7 | ≥ 62 | 0.2 | 18.5 | –
2 | B2 | – | – | 2.1 | > 2090 | 0.49
3 | B3 | ≥ 7 | ≥ 62 | 0.3 | 33.5 | –
